Results from patent publication US20170362324A1 (Biogen, published 2017).
Numbering of substitutions follows the chain as printed. Names and notes keep the numbering of the source.

B1: ALULA-H4/L2-IgG4.P(S228P)/IgG1(N297Q) (antibody, V domains shown)
VH: EVQVVQSGGGLVKPGESLRLSCKASGYTFTSYWMHWVKQAPGKGLEWVGAIYPGNSDTSYNQKFKGKFTISADTSPNTAYLQMNSLKTEDTAVYYCTTTTYGYDWFAYWGQGTLVTVSS
VL: NIQMTQSPSSLSASVGDRVTMSCKSSQSVLYSSNQKNYLAWYQQKPGKSPKLLIYWASTRESGVPDRFTGSGSGTDFTLTISSLQPEDFATYYCHQYLSSLTFGQGTKLEIKR
notes: Hybrid aglycosylated IgG4.P (S228P)/IgG1 (N297Q) heavy chain, human kappa light chain; also called VH4/VL2 (Agly-IgG4P/G1); H4/L2 antibody
B2: VH4/VL2 Fab fragment (Fab, V domains shown)
VH: B1 VH
VL: NIQMTQSPSSLSASVGDRVTMSCKSSQSVLYSSNQKNYLAWYQQKPGKSPKLLIYWASTRESGVPDRFTGSGSGTDFTLTISSLQPEDFATYYCHQYLSSLTFGQGTKLEIK
notes: also called H4/L2 (Fab source); H4L2 hIgG1 Fab
B3: Mouse chimeric ALULA (murine ALULA variable domains fused to human IgG1 heavy chain and human kappa light chain domains) (antibody, V domains shown)
VH: EVQVQQSGTVLARPGASVKMSCKASGYTFTSYWMHWVKQRPGQGLEWIGAIYPGNSDTSYNQKFKGKAKLTAVTSPNTAYMELSSLTNEDSAVYYCTTTTYGYDWFAYWGQGTLVTVSA
VL: NIMMTQSPSSLTVSAGEKVTMSCKSSQSVLYSSNQKNYLAWYQQKPGQSPKLLIYWASTRESGVPDRFTGSGSGTDFTLTISSVQAEDLAVYYCHQYLSSLTFGAGTKLELK
notes: also called chimeric form of ALULA; chimeric murine antibody
B4: VH4/VL0 Agly-IgG4.P (S228P)/IgG1 (N297Q) (antibody, V domains shown)
VH: B1 VH
VL: B1 VL with N1D, L11V, M21I, S22T, S49A, D66S, T69S, L109V
notes: also called VH4/VL0 (Agly-IgG4P/G1); H4/L0
B5: VH2/VL2 Agly-IgG4.P (S228P)/IgG1 (N297Q) (antibody, V domains shown)
VH: B1 VH with K23A, P76S
VL: B1 VL
notes: also called VH2/VL2 (Agly-IgG4P/G1); H2/L2
B6: VH5/VL2 Agly-IgG4.P (S228P)/IgG1 (N297Q) (antibody, V domains shown)
VH: B1 VH with V5Q, E16G, F68A, I70L, D73V
VL: B1 VL
notes: also called VH5/VL2 (Agly-IgG4P/G1); H5/L2

Target: T1, human soluble αvβ5 protein (extracellular domains of human αv and β5 integrin subunits) (human, UniProt P06756 31-992; P18084 24-719)
T1 construct: also called biotin-αvβ5; hsαvβ5
Assay: ELISA, purified hsαvβ5 coated at 2 µg/mL, anti-human IgG-HRP detection
Method: Purified hsαvβ5 protein was coated directly on a 96-well ELISA plate at 2 μg/mL, and H4/L2 antibody binding was detected using a horseradish peroxidase conjugated donkey anti-human IgG polyclonal antibody. In this format, the EC₅₀ of the H4/L2 antibody for αvβ5 was about 65 pM.

T1 sequence (P06756 31-992 limits assumed, chain 1 of 2): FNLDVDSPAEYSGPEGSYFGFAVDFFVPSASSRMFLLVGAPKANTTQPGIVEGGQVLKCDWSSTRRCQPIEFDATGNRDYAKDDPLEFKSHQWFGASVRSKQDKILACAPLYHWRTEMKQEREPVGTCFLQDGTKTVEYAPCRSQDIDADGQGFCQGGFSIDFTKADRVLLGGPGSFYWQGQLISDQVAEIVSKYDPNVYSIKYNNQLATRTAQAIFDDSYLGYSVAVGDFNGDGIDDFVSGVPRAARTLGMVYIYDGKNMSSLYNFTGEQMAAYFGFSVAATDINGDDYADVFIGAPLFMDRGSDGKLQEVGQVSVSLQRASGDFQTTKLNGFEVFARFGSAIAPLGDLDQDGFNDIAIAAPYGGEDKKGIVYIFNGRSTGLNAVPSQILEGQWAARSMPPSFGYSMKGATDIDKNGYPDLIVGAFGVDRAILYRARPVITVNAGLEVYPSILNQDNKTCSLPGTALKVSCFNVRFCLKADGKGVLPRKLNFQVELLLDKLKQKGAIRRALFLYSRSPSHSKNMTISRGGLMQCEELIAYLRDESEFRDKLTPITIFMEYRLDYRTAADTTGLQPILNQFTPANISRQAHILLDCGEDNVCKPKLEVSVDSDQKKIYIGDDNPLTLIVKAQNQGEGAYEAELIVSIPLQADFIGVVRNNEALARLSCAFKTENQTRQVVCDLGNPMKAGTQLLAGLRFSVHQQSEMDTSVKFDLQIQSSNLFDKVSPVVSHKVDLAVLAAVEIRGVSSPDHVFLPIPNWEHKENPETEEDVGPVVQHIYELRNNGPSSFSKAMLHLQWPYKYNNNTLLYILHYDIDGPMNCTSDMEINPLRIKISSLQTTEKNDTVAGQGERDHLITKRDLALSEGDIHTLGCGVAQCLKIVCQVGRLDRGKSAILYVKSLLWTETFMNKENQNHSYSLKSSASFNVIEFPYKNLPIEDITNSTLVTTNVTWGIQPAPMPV
T1 sequence (P18084 24-719 limits assumed, chain 2 of 2): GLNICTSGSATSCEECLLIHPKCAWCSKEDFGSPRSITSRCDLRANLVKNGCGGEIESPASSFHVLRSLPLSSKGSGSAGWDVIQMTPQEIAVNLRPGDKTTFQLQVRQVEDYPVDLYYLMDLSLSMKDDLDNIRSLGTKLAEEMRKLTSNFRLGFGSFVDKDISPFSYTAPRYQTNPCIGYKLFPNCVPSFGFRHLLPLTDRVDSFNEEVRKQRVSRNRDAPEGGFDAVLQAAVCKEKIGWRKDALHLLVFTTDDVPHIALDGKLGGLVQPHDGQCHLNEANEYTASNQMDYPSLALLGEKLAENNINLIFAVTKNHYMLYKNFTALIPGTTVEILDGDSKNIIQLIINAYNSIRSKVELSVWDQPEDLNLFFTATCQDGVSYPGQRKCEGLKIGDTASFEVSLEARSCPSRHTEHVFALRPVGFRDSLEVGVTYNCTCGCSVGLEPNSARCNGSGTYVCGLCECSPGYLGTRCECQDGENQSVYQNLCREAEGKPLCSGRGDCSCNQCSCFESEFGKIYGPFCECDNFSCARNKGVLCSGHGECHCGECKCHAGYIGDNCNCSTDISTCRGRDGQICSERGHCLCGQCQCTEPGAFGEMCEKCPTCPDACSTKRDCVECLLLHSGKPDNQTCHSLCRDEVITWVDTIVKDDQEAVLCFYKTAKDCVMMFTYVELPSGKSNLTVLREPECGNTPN

Row | EC50 [nM] | Binder
1 | ~0.065 | B1

Target: T2, human αvβ5 expressed on BaF3 cells (stably transfected with human αv and β5 subunits) (human, UniProt P06756 31-1048; P18084 24-799)
T2 construct: also called αvβ5-BaF3; BaF3-hu αvβ5
Assay: FACS binding curves on αvβ5-BaF3 cells, 10,000 cells/experiment; monovalent Fab, not mAb
Method: (§1) This experiment was carried out to confirm the affinity of ALULA-H4/L2-IgG4.P(S228P)/IgG1(N297Q) for cell surface expressed αvβ5 stably expressed on murine BaF3 cells. Binding curves were generated using a lower number of cells to ensure that antibody was not simply titrating the receptors on the cell.

T2 sequence (P06756 31-1048 limits assumed, chain 1 of 2): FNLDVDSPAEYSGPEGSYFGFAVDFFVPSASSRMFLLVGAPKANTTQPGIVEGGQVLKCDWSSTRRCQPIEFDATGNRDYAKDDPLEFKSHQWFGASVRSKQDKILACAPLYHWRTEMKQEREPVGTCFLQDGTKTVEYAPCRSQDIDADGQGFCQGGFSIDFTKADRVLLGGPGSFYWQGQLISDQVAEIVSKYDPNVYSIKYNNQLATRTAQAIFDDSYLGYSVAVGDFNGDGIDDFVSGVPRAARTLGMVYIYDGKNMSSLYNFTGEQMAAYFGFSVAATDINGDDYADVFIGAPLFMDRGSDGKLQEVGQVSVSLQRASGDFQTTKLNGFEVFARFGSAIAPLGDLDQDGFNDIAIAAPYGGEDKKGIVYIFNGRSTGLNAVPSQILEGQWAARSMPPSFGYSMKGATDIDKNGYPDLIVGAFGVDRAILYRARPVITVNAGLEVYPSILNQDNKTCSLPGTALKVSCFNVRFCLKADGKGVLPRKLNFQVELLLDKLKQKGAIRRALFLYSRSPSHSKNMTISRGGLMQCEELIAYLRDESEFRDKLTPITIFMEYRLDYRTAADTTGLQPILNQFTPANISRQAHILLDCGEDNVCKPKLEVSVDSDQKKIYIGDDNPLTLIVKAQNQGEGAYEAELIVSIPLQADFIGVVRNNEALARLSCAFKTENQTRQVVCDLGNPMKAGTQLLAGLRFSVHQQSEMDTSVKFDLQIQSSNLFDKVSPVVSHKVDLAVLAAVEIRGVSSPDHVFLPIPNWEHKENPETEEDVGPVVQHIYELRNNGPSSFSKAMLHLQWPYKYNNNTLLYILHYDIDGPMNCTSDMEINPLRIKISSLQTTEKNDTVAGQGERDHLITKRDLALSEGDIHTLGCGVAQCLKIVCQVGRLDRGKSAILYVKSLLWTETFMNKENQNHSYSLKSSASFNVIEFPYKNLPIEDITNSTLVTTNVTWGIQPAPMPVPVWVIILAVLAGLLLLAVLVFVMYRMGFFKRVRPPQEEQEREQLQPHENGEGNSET
T2 sequence (P18084 24-799 limits assumed, chain 2 of 2): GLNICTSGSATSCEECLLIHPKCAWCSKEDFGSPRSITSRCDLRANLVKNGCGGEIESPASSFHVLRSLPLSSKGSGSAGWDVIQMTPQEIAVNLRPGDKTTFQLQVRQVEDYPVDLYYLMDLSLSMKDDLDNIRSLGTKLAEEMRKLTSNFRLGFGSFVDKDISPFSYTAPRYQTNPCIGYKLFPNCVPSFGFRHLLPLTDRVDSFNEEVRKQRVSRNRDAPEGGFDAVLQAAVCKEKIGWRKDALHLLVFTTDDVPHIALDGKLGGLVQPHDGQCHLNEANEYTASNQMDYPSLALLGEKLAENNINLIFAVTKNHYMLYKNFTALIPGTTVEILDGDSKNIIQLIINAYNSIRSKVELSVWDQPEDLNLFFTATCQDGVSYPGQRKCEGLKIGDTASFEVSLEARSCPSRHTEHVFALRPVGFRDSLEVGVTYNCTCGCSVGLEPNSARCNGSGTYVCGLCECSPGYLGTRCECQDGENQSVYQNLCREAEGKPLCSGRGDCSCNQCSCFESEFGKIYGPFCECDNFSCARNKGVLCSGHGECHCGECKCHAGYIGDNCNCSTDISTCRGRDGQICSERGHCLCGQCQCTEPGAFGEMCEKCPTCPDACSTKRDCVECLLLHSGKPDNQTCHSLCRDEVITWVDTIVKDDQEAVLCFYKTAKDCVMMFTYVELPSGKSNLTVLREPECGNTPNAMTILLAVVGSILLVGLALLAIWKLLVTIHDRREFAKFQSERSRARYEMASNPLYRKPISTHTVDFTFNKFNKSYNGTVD

Row | Kd [nM] | Binder
2 | 0.42 | B2

Target: T1, human soluble αvβ5 protein …
Assay: ELISA, Fab blocking of 2 nM soluble αvβ5 binding to immobilized human plasma vitronectin
Method: Fab fragments of the four constructs of Example 6 were generated from the corresponding IgG1(N297Q) versions by digestion with papain. The ability of each Fab to block 2 nM soluble αvβ5 binding to immobilized human plasma vitronectin was determined by ELISA.

Row | Fold change (IC50 against mouse chimeric ALULA) [fold] | IC50 [nM] | Binder
3 | 0.9 | 4.3 | B2

Target: T1, human soluble αvβ5 protein …
Assay: ALULA competition ELISA on soluble human αvβ5
Method: Competition ELISA: A 96-well microtiter plate was coated with 50 μl/well of 5 μg/mL soluble human αvβ5 protein at 4° C. overnight. The plate was washed with wash buffer (0.05% Tween-20 in PBS) four times in an automated plate washer. 300 μl/well of 1% BSA in PBS was added and incubated for 1 hr at 25° C. to block nonspecific binding. The plate was washed as above, and dilutions of humanized antibodies mixed with 1 nM murine ALULA in PBS containing 1% BSA, were added (50 μl/well). The plate was incubated for 1 hr at 25° C., washed, and then incubated for 40 minutes with 100 μl/well of […] goat anti-mouse antibody. Bound antibody was detected using 3,3′,5,5′-tetramethylbenzidine (TMB). Binding was indicated by the absorbency measured at 450 nm.
(§2) Based on the results described above in Example 4, four humanized ALULA constructs: VH2/VL2, VH4/VL0, VH4/VL2, and VH5/VL2, were selected for further testing. These VH/VL constructs were expressed as fusion proteins with the hybrid, aglycosylated IgG4.P (S228P)/IgG1 (N297Q) domain, and human kappa light chain domain, and purified from the conditioned medium of stably transfected CHO cells. Each humanized ALULA construct was assessed for binding using competition ELISA with murine ALULA and by FACS using human αvβ5-transfected BaF3 cells. Each humanized ALULA construct was also assessed for blocking binding/adhesion to vitronectin by ELISA or cell adhesion assays using BaF3 cells stably transfected with human or cynomolgous monkey αvβ5. The humanized ALULA constructs were compared to a chimeric form of ALULA comprising the murine heavy and light chain variable domains fused to human IgG1 heavy chain and human kappa light chain domains. The four humanized ALULA constructs behaved similarly in the assays, with H4/L2 generally having similar or slightly higher affinity/blocking potency than the other constructs (see, Table 3).

Row | IC50 [nM] | Fold chg. (IC50 against mouse chimeric ALULA) [fold] | Binder
4 | 1.81 | – | B3
5 | 1.84 | 1 | B1
6 | 1.84 | 1 | B4
7 | 2.61 | 1.4 | B5
8 | 1.85 | 1 | B6

Target: T1, human soluble αvβ5 protein …
Assay: αvβ5-vitronectin blocking ELISA
Method: Vitronectin Inhibition ELISA: 96-well microtiter plates were coated with 5 μg/ml purified human plasma vitronectin diluted in PBS (50 μl/well) at 4° C. overnight. After the coating solution was removed, the plates were blocked with 300 μl/well of 1% BSA/TBS at 25° C. for 1 hr. The plate was washed with wash buffer (0.05% Tween-20 in TBS containing 1 mM CaCl₂ and 1 mM MgCl₂), and dilutions of humanized antibodies mixed with 1 nM soluble αvβ5 protein in TBS containing 1% BSA, 1 mM CaCl₂ and 1 mM MgCl₂ were added (50 μl/well) and incubated at 25° C. for 1 hr. The plate was washed 4 times with wash buffer in an automated plate washer and incubated sequentially with 50 μl/well of the anti-beta5 monoclonal antibody 15F11 (at 0.5 ug/mL) in for 1 hr at 25° C. in TBS containing 1% BSA, 1 mM CaCl₂ and 1 mM MgCl₂. After washing the plate 4 times with wash buffer, 100 μl/well of a 1:5000 dilution of a peroxidase-conjugated goat anti-mouse antibody in TBS containing 1% BSA, 1 mM CaCl₂ and 1 mM MgCl₂ were added and incubated for 1 hr at 25° C. Bound protein was detected using the TMB substrate and indicated by the absorbency measured at 450 nm.
as §2

Row | IC50 [nM] | Fold chg. (IC50 against mouse chimeric ALULA) [fold] | Binder
9 | 1.6 | – | B3
10 | 1.06 | 0.7 | B1
11 | 1.52 | 1 | B4
12 | 1.74 | 1.1 | B5
13 | 1.24 | 0.8 | B6

Target: T2, human αvβ5 expressed on BaF3 cells …
Assay: FACS on BaF3-hu αvβ5 cells
Method: FACS Binding Assay: Cells were washed one time in PBS, and then resuspended in FACS buffer (1×PBS, 1% BSA, 1 mM CaCl₂, and 1 mM MgCl₂). 1×10⁶ cells were then incubated on ice for 1 hr in FACS buffer containing the test antibody in a total volume of 50 μl. After incubation, the cells were washed two times with ice cold FACS buffer, resuspended in 50 μl of FACS buffer containing 3 μg/ml goat anti-mouse IgG AlexaFluor488 (Jackson ImmunoResearch), and incubated on ice for 30 min. The cells were then washed twice with ice cold FACS buffer and fixed in 1% PFA overnight. Cell aggregates were removed by filtering through 40 μm filter plates (Millipore) and binding of the labeled secondary antibody was monitored by flow cytometry using a FACS Calibur (BD Biosciences).
as §2

Row | EC50 [nM] | Fold chg. (EC50 against mouse chimeric ALULA) [fold] | Binder
14 | 5.06 | – | B3
15 | 2.92 | 0.6 | B1
16 | 2.52 | 0.5 | B4
17 | 5.73 | 1.1 | B5
18 | 2.9 | 0.5 | B6

Target: T2, human αvβ5 expressed on BaF3 cells …
Assay: cell-based or functional assay

Row | BaF3-hu αvβ5 Cell adhesion to vitronectin (IC50, nM) [nM] | BaF3-hu αvβ5 Cell adhesion to vitronectin, Fold chg. (against mouse chimeric ALULA) [fold] | Binder
19 | 0.17 | – | B3
20 | 0.1 | 0.6 | B1
21 | 0.09 | 0.5 | B4
22 | 0.3 | 1.8 | B5
23 | 0.29 | 1.7 | B6

Target: cynomolgus monkey αvβ5 expressed on BaF3 cells (cynomolgus monkey, UniProt A0A2K5WCD3 31-1048; A0A2K5UEB4 24-799)
Assay: cell-based or functional assay

Row | BaF3-cyno αvβ5 Cell adhesion to vitronectin (IC50, nM) [nM] | BaF3-cyno αvβ5 Cell adhesion to vitronectin, Fold chg. (against mouse chimeric ALULA) [fold] | Binder
24 | 0.61 | – | B3
25 | 0.32 | 0.5 | B1
26 | 0.43 | 0.7 | B4
27 | 0.61 | 1 | B5
28 | 0.63 | 1 | B6

Target: T2, human αvβ5 expressed on BaF3 cells …
Assay: flow cytometry on BaF3 cells co-transfected with human αv and human β5
Method: The binding of the H4/L2 antibody (SEQ ID NOs.: 69 and 70) to αvβ5 expressed on the cell surface was determined using flow cytometry on BaF3 cells stably co-transfected with human αv and human β5 integrin subunits. BaF3 cells are a murine IL-3 dependent hematopoietic cell line of indeterminate origin. These cells endogenously express mouse alpha-V (as well as alpha-4, alpha-5, and beta-1 integrins) but no beta-5 or beta-6 integrin.
The H4/L2 antibody was added to cells in FACS Buffer (PBS, 1% BSA, 1 mM CaCl₂, 1 mM MgCl₂) for 30 minutes on ice. After washing, bound antibody was detected with an anti-human-Alexa Fluor® 488 secondary antibody. Cells fixed in 1% paraformaldehyde were collected on a FACS Calibur and mean fluorescence intensity was analyzed using FlowJo software.

Row | EC50 [nM] | Binder
29 | 3 | B1

Target: T2, human αvβ5 expressed on BaF3 cells …
Assay: FACS binding curves on αvβ5-BaF3 cells, 10,000 cells/experiment; mAb (bivalent IgG)
Method: as §1

Row | Kd [nM] | Binder
30 | 0.08 | B1
